The values below come from publication PMC12261083, “Two DNA-binding One Zinc Finger transcription factors, MdCDOF3 and MdDOF3.6, accelerate leaf senescence by activating cytokinin oxidase MdCKX7 in response to sorbitol signaling in apple”.

Data set [1] deals with T1, MdDOF3.6 (Malus domestica, UniProt A0A498JFY8 1-358).
T1 sequence: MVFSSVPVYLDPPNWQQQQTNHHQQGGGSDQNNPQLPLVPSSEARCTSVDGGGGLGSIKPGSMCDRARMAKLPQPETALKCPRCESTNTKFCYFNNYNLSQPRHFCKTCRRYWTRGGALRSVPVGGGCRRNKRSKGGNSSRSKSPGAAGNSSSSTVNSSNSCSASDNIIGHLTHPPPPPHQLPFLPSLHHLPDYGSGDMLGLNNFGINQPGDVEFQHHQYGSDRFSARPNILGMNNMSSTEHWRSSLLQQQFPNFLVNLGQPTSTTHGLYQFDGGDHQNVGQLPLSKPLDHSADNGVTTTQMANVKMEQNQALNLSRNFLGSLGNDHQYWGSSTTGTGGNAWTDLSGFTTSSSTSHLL
The data set is described as follows: EMSA; not stated (EMSA according to cited protocol; biotin-labelled probes, Beyotime kit). As to conditions: protein: recombinant; tags: His; label: biotin.

For data set [2], the target named is T1, MdDOF3.6. The data set can be described thus: EMSA; mutated probe; shift disappeared; not stated (EMSA according to cited protocol; biotin-labelled probes, Beyotime kit). To be noted: protein: recombinant; tags: His. A general note: In EMSA bound probe runs differently from free probe, usually more slowly.

B1: MdCKX7 promoter P4 probe (dsDNA)
DNA 1: GATACTATTCACTTTACCCTTTATTCTGTCCTTATC
DNA 2: GATAAGGACAGAATAAAGGGTAAAGTGAATAGTATC
B1: the binding result with MdDOF3.6 [1] is listed as “binds”.

B2: MdCKX7 promoter P4 mutant probe (dsDNA)
DNA 1: GATACTAAAAAAAAAAAAAAAAAAAAAATCCTTATC
DNA 2: GATAAGGATTTTTTTTTTTTTTTTTTTTTTAGTATC
With B2, in the data set with MdDOF3.6 [2], the binding result was “no binding”.
